Literature values in patent publication US20220184236A1, “NANOPARTICLE, CONTRAST AGENT FOR MAGNETIC RESONANCE IMAGING COMPRISING SAME AND ZWITTERIONIC LIGAND COMPOUND” (ASTELLAS PHARMA INC., priority 2018, published 2022).

Details: authentic sample, stated size

B1: ovalbumin (protein, UniProt P01012 2-386, looked up)
Ovalbumin: GSIGAASMEFCFDVFKELKVHHANENIFYCPIAIMSALAMVYLGAKDSTRTQINKVVRFDKLPGFGDSIEAQCGTSVNVHSSLRDILNQITKPNDVYSFSLASRLYAEERYPILPEYLQCVKELYRGGLEPINFQTAADQARELINSWVESQTNGIIRNVLQPSSVDSQTAMVLVNAIVFKGLWEKAFKDEDTQAMPFRVTEQESKPVQMMYQIGLFRVASMASEKMKILELPFASGTMSMLVLLPDEVSGLEQLESIINFEKLTEWTSSNVMEERKIKVYLPRMKMEEKYNLTSVLMAMGITDVFSSSANLSGISSAESLKISQAVHAAHAEINEAGREVVGSAEAGVDAASVSEEFRADHPFLFCIKHIATNAVLFFGRCVSP
notes: authentic sample for SEC, particle size 6.1 nm
particle size: 6.1 nm
